Assay results as given in patent US20080089862A1, “PROTEASE INHIBITORS AND METHOD OF SCREENING THEREOF” (priority 2005, published 2008).

Legend:
scNS3 = target: T1, scNS3 (Hepatitis C virus genotype 1b, UniProt P26663); experiment: Competition ELISA with myc-tagged tracer scFvs 171 and 35 on scNS3-coated plates; type: binding, Hepatitis C virus (HCV) genotype Ib; settings: tracers scFv 171 and 35, myc tag
T1 construct: a single-chain fusion linking the NS4A cofactor peptide to the N-terminus of the NS3 protease; inferred from the IMAC purification; made in house; host or cells: E. coli BL-21 (DE3) carrying pYB-43
Procedure: For competition ELISA the inventors replaced the C-terminal FLAG epitope of the scFvs that were used as tracers with a myc tag. Competing scFvs were added to scNS3-coated plates at varying concentrations and incubated at room temperature for 1 hr before adding the tracer scFvs. Binding of the tracers was monitored using a HRP-conjugated anti myc antibody (Sigma, Israel).

MBP-scNS3 [1] = target: T2, MBP-scNS3 (Hepatitis C virus genotype 1b, UniProt P26663); experiment: ONPG hydrolysis (β-galactosidase) assay in genetic screening bacteria as indicator of NS3 activity; type: cell-based, Hepatitis C virus (HCV) genotype Ib; settings: E. coli TG-I carrying pMGT14 and pMALc-NN-scFv; taken from FIG. 3A
T2 construct: made in house
Procedure: (§1) NS3 catalysis inhibition assays. Blue colonies of E. coli TG-I cells carrying pMGT14 and pMALc-NN-scFv that were isolated by the genetic screening were grown in LB medium supplemented with 100 μg/ml ampicillin, 50 μg/ml kanamycin and induced with 0.2% (w/v) arabinose and 0.5 mM IPTG at O.D600nm=0.6 for 4 hr at 30° C. To measure the β-galactosidase activity an ONPG hydrolysis assay (Bach et al., 2001) was carried out. An in vitro fluorometric assay for the measurement of NS3 protease catalysis inhibition by the purified scFvs was carried out essentially as described (Berdichevsky et al., 2003) with the following modifications: the EFGP-NS5A/B-CBD substrate was immobilized onto cellulose prior to its exposure to enzyme and inhibitor. The reactions were carried out in 96 well plates in a volume of 100 μl containing 5 μM immobilized substrate, 100 nM MBP-5cNS3 and 2.4 or 1.2 μM of tested MBP-scFv.

MBP-scNS3 [2] = target: T2, MBP-scNS3; experiment: In vitro fluorometric assay of NS3 protease catalysis inhibition; type: biochemical, Hepatitis C virus (HCV) genotype Ib; settings: 100% minus % catalysis of FIG. 3B; 100 nM MBP-scNS3, 5 μM immobilized substrate, 2.4 or 1.2 μM MBP-scFv
Procedure: as §1

NS3 = target: T3, NS3 (Hepatitis C virus genotype 1b, UniProt P26663); experiment: Competitive in vitro fluorometric assay with epitope mimetic peptide; type: biochemical, Hepatitis C virus (HCV); settings: scFv 200 μg/ml
T3 construct: made in house
Description: In order to confirm the prediction of scFv 35 and 171 shared epitope on NS3, the epitope was reconstituted on basis of the prediction. To that end, a short peptide segment of NS3 that was predicted to comprise the antibodies shared epitope was used to generate an epitope mimetic. […] As negative controls, a peptide 21 amino acids in length denoted peptide 6 (N′-[…]-C, SEQ ID NO: 111) and a peptide eight amino acids in length denoted peptide x (N′-[…]-C, SEQ ID NO: 112) were used. To test whether those peptides have any effect on NS3 catalytic activity a control in vitro assay was performed, in which the peptides and the NS3 enzyme were added alone without the inhibitor antibodies.

HCV RNA replicons = experiment: Inhibition of HCV RNA replicon amplification, SEAP secretion from replicon-bearing Huh7 cells transfected with intrabodies; type: cell-based, HCV genotype Ib strain N; settings: transiently transfected intrabodies
Procedure: Cells and transfections. HCV genotype Ib strain N subgenomic replicon cell lines were obtained from Stanley Lemon and are described in (Bourne et al., 2005). En5-3 cells are a clonal cell line derived from Huh7 cells by stable transformation with the plasmid pLTR-SEAP. These cells were cultured in DMEM supplemented with 10% fetal calf serum, 2 μg/ml blasticidin (Invitrogen), penicillin, and streptomycin. Following transfection with Ntat2ANeo replicon RNAs, cells supporting replicon amplification were selected and maintained in the above media containing in addition 400 μg/ml G418 (geneticin). Cell lines were passaged once or twice per week. […] The culture medium was replaced every 24 h post transfection and the secreted alkaline phosphatase (SEAP) activity was measured in these fluids as described below, reflecting the daily production of SEAP by the cells.
Alkaline phosphatase assay. […] The luminescent signal was read using a TD-20/20 Luminometer (Turner Designs, Inc.).
For intracellular expression of the anti-NS3 protease single-chain antibodies in the cytoplasm of mammalian cells, the scFvs coding genes were subcloned as Ncol-Notl fragments, form plasmid pMALc-NN-scFv into the pCMV/myc/cyto-MBP vector (Shaki-Loewenstein et al, 2005). […] SEAP activity secreted from the cells was measured over successive 24-h intervals. […]

Row | Molecule | competition with scFvs 171 and 35 for specific binding to scNS3 (scNS3) | β-gal: β-galactosidase units (MBP-scNS3 [1]) | % inhibition (MBP-scNS3 [2]) [%] | NS3 catalysis with scFv, without peptide (NS3; no peptide) [%] | NS3 catalysis with scFv in the presence of the epitope mimetic peptide (NS3; peptide mimetic 50 μM) [%] | increase of NS3 catalytic activity on adding the peptide mimetic (NS3; peptide mimetic 50 μM) | inhibition of SEAP secretion (in words) (HCV RNA replicons)
1 | scFv 162: NS3-inhibiting single-chain antibody, SEQ ID NO:5; MBP fusion SEQ ID NO:19 (protein, scFv inhibitor) scFv: EVQLQQSGAELVRSGASVKLSCTASGFNIKDYYMHWVKQRPEQGLEWIGWIDPANGNTKYDPKFQGKATITADTSSNTAYLQLSSLTSEDTAVYYCARWDWYFDVWGAGTTVTVSSGGGGSGGGGSGGGGSSVLMTQTPLSLPVSLGDQASISCRSSQSIVHSNGNTYLEWYLQKPGQSPKLLIYKVSNRFSGVPDRFSGSGSGTDFTLKISRVEAEDLGVYYCFQGSHVPWTFGGGTKLELKR | apparently did not | 84 β-galactosidase units | 62 |  |  |  | 
2 | scFv 148: NS3-inhibiting single-chain antibody, SEQ ID NO:7; MBP fusion SEQ ID NO:21 (protein, scFv inhibitor) scFv: EIQLQQSGAELVKPGASVKLSCTASGFNIKDTFVHWVKQRPEQGLEWIGRIDPANGNTKYDPKFQGKATITAATSSNTAYLQLSSLTSEDTAVYYCATGLDYYAMDYWGQGTSVTVSSGGGGSGGGGSGGGGSDVVMTQTPLSPPVSLGDQASISCRSSQSLVHSNGNTYLHWYLQKPGQSPKLLIYKVSNRFSGVPDRFSGSGSGTDFTLKITRVEAEDLGLYFCSQSTHVPWTFGGGTKLEIKR |  | 72 β-galactosidase units | 58 |  |  |  | 
3 | scFv 11: NS3-inhibiting single-chain antibody, SEQ ID NO:10; MBP fusion SEQ ID NO:24 (protein, scFv inhibitor) scFv: EVQLQQSGAELVKPGASVKLSCTASGFNIKDYYMHWVKQRPGQGLEYIGRIYPGNGQTDYNGKFKGKATLTADKSSSTAYMQLSSLTSVDSAVYFCARGLFAYWGQGTLVTVSSGGGGSGGGGSGGGGSDVVMTQTPLSLPVSFGDQVSISCRSSQSLANSYGNTYLSWCLHKPGQSPQLLIYGISNRFSGVPDRFSGSGSGTDFTLKISTIKPEDLGMYYCLQGTHQPLTFGAGTKLEIKR | could compete | 60 β-galactosidase units | 52 |  |  |  | 
4 | scFv 10: NS3-inhibiting single-chain antibody, SEQ ID NO:11; MBP fusion SEQ ID NO:25 (protein, scFv inhibitor) scFv: QVQLQQSGAELMKPGASVKISCKATGYTFSNYWIEWVKQRPGHGLEWIGGILPGSGSTNYNEKFKGKATFTADTSSNTAYLQLSSLTSEDTAVYYCNADGPPGFDYWGQGTTLTVSSGGGGSGGGGSGGGGSDVLMTQTPLTLSVTIGQPASISCKSSQSLLDSDGKTYLNWLLQRPGQSPKRLIYLVSKLDSGVPDRFTGSGSGTDFTLKISRVEAEDLGVYYCFQGSHVPFTFGSGTKLEIKR | could compete | 48 β-galactosidase units | 62 |  |  |  | 
5 | scFv 171: NS3-inhibiting single-chain antibody, SEQ ID NO:6; MBP fusion SEQ ID NO:20 (protein, scFv inhibitor) scFv: EVQLQQSGAELVRSGASVKLSCTASGFNIKDYYMHWVKQRPEQGLEWIGWIDPENGDTEYAPKFQGKATMTADTSSNTAYLQLSSLTSEDTAVYYCNAWGGSSDYYAMDYWGQGTSVTVSSGGGGSGGGGSGGGGSDVVMTQTPLSLPVSLGDQASISCRSSQSLVHSNGNTYLHWYLQKPGQSPKLLIYKVSNRFSGVPDRFSGSGSGTDFTLKISRVEAEDLGVYYCFQGSHVPWTFGGGTKLEIKR | could compete | 67 β-galactosidase units | 88 | 60 | 93 | more than 30% | most potent inhibitors
6 | scFv 1: NS3-inhibiting single-chain antibody, SEQ ID NO:1; MBP fusion SEQ ID NO:15 (protein, scFv inhibitor) scFv: EVQLQQSGPELVKPGASVKMSCKASGYTFTDYYIKWVKQSHGKSLEWIGVINPGSGGTNYNEKFKGKATLTADKSSSTAYMQLSSLTSENSAVYFCARRAGTGYYFDYWGQGTTVTVSSGGGGSGGGGSGGGGSDVLMTQTPLSLPVSLGDQASISCRSSQSIVHSNGNTYLEWYLQKPGQSPKLLIYKVSNRFSGVPDRFSGSGSGTDFTLKISRVEAEDLGVYYCFQGSHVPLTFGAGTKLEIKR | could compete | 44 β-galactosidase units | 46 |  |  |  | 
